From the supplement of paper PMC12042874
± gives the uncertainty stated by the source.

Test: amyloid nucleation score (Sup35N fusion, yeast selection) (log enrichment); library NNK3; higher = more nucleation; inactive = no reads after selection
Method in brief: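 Nucleation score: DiMSum log enrichment of output over input reads, centred on the mode score of non-aggregating sequences. Only sequences with at least 100 input reads were kept. Reads came from Illumina sequencing of plasmid inserts before and after 7 days of growth at 30°C without adenine and uracil, in psi-negative yeast expressing Sup35N fused to peptides of 20 random codons after 24 hours of induction with 100 μM copper sulfate.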

Row | Substance | amyloid nucleation score
1 | IRTSLSSVLDVCHTSNTI | inactive
2 | IRVRTYSTKLPSLGH | inactive
3 | IRYRRHVNVEFKMYNWSCWC | -0.554 ± 0.63
4 | ISAGFAGNN | inactive
5 | ISDDICSVKVSGRRACHWIG | inactive
6 | ISDLWLFATCSLK | inactive
7 | ISDPRLGKVPLWDMSSIVYV | inactive
8 | ISFGYQVYA | inactive
9 | ISFRYHIYRSNCSQMNGRLT | inactive
10 | ISGKCRIVAVESSCECSLSS | inactive
11 | ISHVEYLVLEPSMVYF | -0.349 ± 0.59
12 | ISKSVLMMNTAKIPPPMF | inactive
13 | ISLVLVCYKASVITLWENQW | -0.627 ± 1.4
14 | ISMFDPLRCPWSNYGMCG | inactive
15 | ISMLTVVSN | inactive
16 | ISMSVYFFTIISSQFMFPIR | inactive
17 | ISNSYH | inactive
18 | ISNVIMWNWGLDFTNYYSDS | 1.45 ± 0.093
19 | ISQFHYLGRIST | inactive
20 | ISQGFGCEFVFWFEEGKFFH | inactive
21 | ISRLR | inactive
22 | ISRVCSNFLGLDVTFLMLLT | 1.42 ± 0.14
23 | ISSNLLHAVWYSHEPGW | 1.81 ± 0.061

Row | Substance | amyloid nucleation score
24 | ISWVRFRAVFWMRMFEAH | -0.441 ± 1.4
25 | ITKQEVLSLTIFRMAEGVQW | 0.382 ± 0.4
26 | ITQLFSSLRADYAAQYYLGV | inactive
27 | ITQWWVYIKNF | inactive
28 | ITVFNLILM | 2.61 ± 0.058
29 | ITVSTGW | inactive
30 | ITYFLWAVFYDGFSMSFFVA | inactive
31 | IVDCLFK | inactive
32 | IVECFYTL | inactive
33 | IVKRFWLNGSFTFSFCNGNG | 2.09 ± 0.09
34 | IVLYQATCRSIKRVCVLETL | inactive
35 | IVMIVNTGIA | inactive
36 | IVNIKMNLWFYGNFMLWASS | inactive
37 | IVPSNSARLLSVKALDLPIS | inactive
38 | IVRPLLNFLCDLCRKVALGK | inactive
39 | IVSCLSCHLCLKCYSPLCVL | 0.851 ± 0.12
40 | IVSMSCGWFRGYRVDDGYM | 1.38 ± 0.083
41 | IVSWKVRSVSLKLLLSCAPD | inactive
42 | IVTNDVCVFSVQYSRFVVRL | 0.416 ± 0.23
43 | IVTVLNSVLGKGFQQAPRRG | inactive
44 | IVVCRKEDSAQRFSFVRLSD | inactive
45 | IVVVFNPFGDELTYWVTQSM | inactive
46 | IVYMAATKLMVVNSLCNGRG | 2.04 ± 0.09

Row | Substance | amyloid nucleation score
47 | IWCSRAGVRWVEMNVEQVYW | inactive
48 | IWENNSIML | inactive
49 | IWNSRSSCPECALATLETWA | inactive
50 | IWQFRGSPSVYSARREWIDT | inactive
51 | IWTLVVCFLDVRRRR | -0.05 ± 0.53
52 | IYCPYVGCVMSLGTGCM | 1.06 ± 0.19
53 | IYCVEERHFLNIYSRMSYYS | inactive
54 | IYDRMGGHL | inactive
55 | IYGSASNYMFILGIDRSRWA | 1.14 ± 0.15
56 | IYGVRYWV | inactive
57 | IYLECIYNCFYVYKIMLHRV | inactive
58 | IYLIPITPIPVCYKIFLFGM | 1.19 ± 0.079
59 | IYSHSPLFLRRYGAIYESCR | inactive
60 | IYTSGWINYSIARFACCIRW | inactive
61 | IYYPIMCAAVAYLLSSRFRC | inactive
62 | KAERVVRA | inactive
63 | KANDMVFMGGGVLKLGRTLA | inactive
64 | KCAALLDPDSASGGRCEWNC | 1.08 ± 0.17
65 | KCLMNFTVMRGASSCLEVPC | inactive
66 | KCPRVDSA | inactive
67 | KCRGGRETIRLRRSLWVFMV | inactive
68 | KDIYYTSFILPDEWITG | inactive
69 | KDLKMYRGF | inactive

Row | Substance | amyloid nucleation score
70 | KDLNENGRLFIIDPIIFSMF | inactive
71 | KDMMWDVSRPYFYLVTYQIG | inactive
72 | KDNKGMGRMFSNILFFTISL | 0.663 ± 0.13
73 | KDTRIQLVNNFICGDSLE | inactive
74 | KDWQTIYQLRSVTFFDLLVV | inactive
75 | KDYGLADGERHESM | inactive
76 | KEAPIWRKKGQNLLLPVSGW | inactive
77 | KEFAIESTVLFYTVLLKAAH | inactive
78 | KEFCVRPLYRFSVRMNIC | 0.035 ± 0.62
79 | KERCLVSHCTTLCALFLRVI | inactive
80 | KERIQCYMRLPRFIN | inactive
81 | KFCLWYSGTNELDLCEPSMT | inactive
82 | KFFYCERVLSGNRVKRHERI | 0.676 ± 0.21
83 | KFHIFFCSFCVPPE | 3.17 ± 0.082
84 | KFLPGCCFYMRIMSQVSLKN | inactive
85 | KFWLKVHFYEHKWSWVMFEC | inactive
86 | KFYAYSEDMVSQYI | inactive
87 | KFYDSISRLQNERGPVIFPR | inactive
88 | KGALRFITYSSMLVYYLNLG | inactive
89 | KGCVRSGQIWLRCIWSQYP | inactive
90 | KGETDFVLKP | -0.432 ± 0.87
91 | KGFSFLRIRRMGLWTVSGYG | inactive
92 | KGQYLSIGYNNFRG | -0.764 ± 1.8

Row | Substance | amyloid nucleation score
93 | KGSDFSEFVAWRLLTAYRVP | inactive
94 | KGTYGFAINHHYIA | inactive
95 | KGYRINSNFNKFNKPLCSAI | inactive
96 | KHFLQVVRSSNRTVSARFPL | inactive
97 | KIDAN | inactive
98 | KIFTWIRCNLSIFYSYGFKS | inactive
99 | KIMSYHIHVMFLLDYMKDRS | 1.28 ± 0.15
100 | KINGIDSSGMCAISLIKKGA | inactive
101 | KINKREWRRFTVYSVFSHVS | 0.435 ± 0.35
102 | KINRVSLLVLGH | inactive
103 | KISSQIYMCRKTNSSDRTMM | inactive
104 | KIWFCNWFANNYFMIANSST | 0.627 ± 0.11
105 | KIYANHLL | inactive
106 | KKGGLLLLNKYN | inactive
107 | KLAKHH | inactive
108 | KLDLQSSFLFLGSVHV | inactive
109 | KLGIRPDRISVTWCLSNTTV | -0.473 ± 1.3
110 | KLKFMPRLSHKWDRDQLRVH | inactive
111 | KLLLMGCRDVYFSYRIFM | 3 ± 0.054
112 | KLMPVIVTFNRYFFGQVMEE | 1.2 ± 0.14
113 | KLMVNNQFISISINMSRCLF | 1.63 ± 0.098
114 | KLNILKTGMLCYVPHLIAHI | inactive
115 | KLPNYLYRLSLFPVTLVSTM | inactive

Row | Substance | amyloid nucleation score
116 | KLYESYASIRNNGCLRCSNS | inactive
117 | KMCIDFEPELYNLFLLAFHQ | inactive
118 | KMSLGLRCYSAYKEPLVQGE | -0.055 ± 1.1
119 | KMTGLWLNVAVSDAFLEYDE | 1.46 ± 0.13
120 | KNDSVKSKCVSIGVPVPLLV | inactive
121 | KNLGIG | inactive
122 | KNMWTGSFDVFRRWPISLKG | inactive
123 | KNSASLFL | inactive
124 | KNSLDALFYVTALFCTLSGD | -0.122 ± 0.38
125 | KNVTFTCHWTSKSLNMYYEE | 0.512 ± 0.29
126 | KPCSRVSWNVVQVV | inactive
127 | KPWMVEAPFERA | inactive
128 | KQRVASTTTVAPHPKNKD | inactive
129 | KQTFKYTGVDHTVT | inactive
130 | KRASMPVPGSSWLHQFKE | inactive
131 | KRDEVVKFLLDGVGASGYNA | inactive
132 | KRDTSWLPVCNSGLSQCRKR | inactive
133 | KRFDMMHIQTYEMGWSPSVR | inactive
134 | KRFVFPLLIR | inactive
135 | KRKQVSFTH | inactive
136 | KRWGEPYRMIVGYMVRYMVT | 2 ± 0.089
137 | KRYNRFIGHLMTLYRASMGD | -0.714 ± 0.88
138 | KSCWLSYGFQLFIGVMNMH | 1.29 ± 0.079

Row | Substance | amyloid nucleation score
139 | KSGYCNKCMNGFSGTLTSNY | inactive
140 | KSLSGVIREENRDARGFWRS | inactive
141 | KSPVWIQIPLMCFLLEFVLG | 0.471 ± 0.2
142 | KSQYTSASP | inactive
143 | KSRERFLCSKGMSPQQTHMY | inactive
144 | KSRKFYKTSLCLMNTYLMNM | inactive
145 | KSSMKLLSPP | inactive
146 | KSTICACTLIMVNTPFMLSM | 1.36 ± 0.11
147 | KSVVGFFVSARYCCTLGTGG | inactive
148 | KSWNGQMYCVASGKQKTIMY | inactive
149 | KSWVIKLSGFVETWHRMD | inactive
150 | KSYLAVVSYFGFTKKADPTG | inactive
151 | KTDIPGNHFLTSARLCAG | inactive
152 | KTLYTDSS | 0.114 ± 0.58
153 | KTWVSIVSGLKADSGGGLHA | inactive
154 | KVAILVHILNNLVRVRVCFN | inactive
155 | KVARIVPRFKRQDYTALILD | inactive
156 | KVCGCSILLLKLRGVNRVVS | inactive
157 | KVCHSWVWHILGSLDYITRG | inactive
158 | KVGAGIDIISFIRNLILALP | inactive
